From patent publication US5273879, “Amplification method for polynucleotide assays” (Syntex (U.S.A.) Inc.) come the findings set out here.

In this series the target is Klenow fragment DNA polymerase (UniProt P00582 P00582:324-928). Kind of series: primer extension, 7 mM MgCl2, 50 mM NaCl, 37 C. As to conditions: tags: Pharmacia Lot NM 92818; label: 5'-32P on 17 mer. How it is done: The 120 mer (1 μg=25 pmoles) was incubated with a ten-fold molar excess (1.4 μg=250 pmoles) of 17 mer including all of the radioactively labeled 17 mer described above at 60° C. for 5 minutes and then slowly cooled over 30 minutes to 37° C. in a volume of 20.2 μl in 1.3×Klenow buffer (1×Klenow buffer is 7 mM Tris-HCl (pH 7.5), 7 mM MgCl_2, 50 mM NaCl). To this cooled reaction mix was added 2 μl of a solution of 0.4 mM dATP, dCTP, dGTP, dTTP (final conc.=32 μM of each dNTPs), 1.8 μl of 0.1M dithiothreitol (final conc.=[…]) and 7.2 units of Klenow polymerase (Pharmacia Lot #NM 92818) in a final concentration of 1×Klenow buffer. This reaction was incubated at 37° C. for 30 minutes. An additional 7.2 units of Klenow polymerase (1 μl volume) was added and the reaction was continued at 37° C. for one hour.
Sequence of Klenow fragment DNA polymerase (P00582 324-928, one chain of several): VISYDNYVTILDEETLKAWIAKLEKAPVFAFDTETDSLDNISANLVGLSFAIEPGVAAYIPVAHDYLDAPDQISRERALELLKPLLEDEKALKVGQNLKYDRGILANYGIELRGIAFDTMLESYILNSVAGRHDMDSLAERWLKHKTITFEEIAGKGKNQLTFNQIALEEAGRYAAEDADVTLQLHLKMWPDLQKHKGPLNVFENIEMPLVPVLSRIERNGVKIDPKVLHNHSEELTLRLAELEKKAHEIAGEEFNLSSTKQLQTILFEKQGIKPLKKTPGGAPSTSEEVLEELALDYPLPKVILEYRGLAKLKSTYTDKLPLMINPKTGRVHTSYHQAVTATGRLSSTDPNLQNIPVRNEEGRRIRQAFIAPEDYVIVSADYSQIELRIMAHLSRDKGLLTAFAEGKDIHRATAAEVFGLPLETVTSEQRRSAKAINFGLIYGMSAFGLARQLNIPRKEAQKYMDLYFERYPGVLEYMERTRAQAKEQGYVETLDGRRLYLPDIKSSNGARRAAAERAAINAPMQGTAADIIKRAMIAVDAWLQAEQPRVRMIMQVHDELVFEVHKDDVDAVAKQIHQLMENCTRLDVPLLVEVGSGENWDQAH
The reaction products were ethanol precipitated by the addition of 375 μl of 0.3M Na Acetate (pH 5.4) and 1.1 ml ethanol (−20° C.), followed by spinning at 15,000 g's for 30 minutes. The precipitated DNA was then resuspended in 25 μl of H_2O and reprecipitated with 1 ml of 100% ethanol (4° C.) and centrifugation as above. The supernatant was removed and the precipitated DNA pellet dried under vacuum.

B1: 120 mer repeating template / 17 mer primer, extended (dsDNA)
DNA 1: CGGGGAATTCTTTAAATATTCCTTTAAACCTACCTTTAAACCTACCTTTAAACCTACCTTTAAACCTACCTTTAAACCTACCTTTAAACCTACCTTTAAATATTCCGAATTCACTGGCCG
DNA 2: CGGCCAGTGAATTCGGA
B1: the binding result is “binds”.
